T1: FGF8b (UniProt P55075-3 23-215)
T1 construct: Coated on ELISA plates; also called ligand protein FGF8b
T1 sequence (looked up): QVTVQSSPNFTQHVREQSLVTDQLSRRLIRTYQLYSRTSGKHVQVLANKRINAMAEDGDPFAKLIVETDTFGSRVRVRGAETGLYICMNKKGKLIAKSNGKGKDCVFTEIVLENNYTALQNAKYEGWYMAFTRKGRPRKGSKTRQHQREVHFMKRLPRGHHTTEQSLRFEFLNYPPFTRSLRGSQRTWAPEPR

T2: FGFR2 IIIb-Fc (human)
T2 construct: also called FGFR2IIIb beta-ECD; FGFR2IIIb-hFc
T2 chain: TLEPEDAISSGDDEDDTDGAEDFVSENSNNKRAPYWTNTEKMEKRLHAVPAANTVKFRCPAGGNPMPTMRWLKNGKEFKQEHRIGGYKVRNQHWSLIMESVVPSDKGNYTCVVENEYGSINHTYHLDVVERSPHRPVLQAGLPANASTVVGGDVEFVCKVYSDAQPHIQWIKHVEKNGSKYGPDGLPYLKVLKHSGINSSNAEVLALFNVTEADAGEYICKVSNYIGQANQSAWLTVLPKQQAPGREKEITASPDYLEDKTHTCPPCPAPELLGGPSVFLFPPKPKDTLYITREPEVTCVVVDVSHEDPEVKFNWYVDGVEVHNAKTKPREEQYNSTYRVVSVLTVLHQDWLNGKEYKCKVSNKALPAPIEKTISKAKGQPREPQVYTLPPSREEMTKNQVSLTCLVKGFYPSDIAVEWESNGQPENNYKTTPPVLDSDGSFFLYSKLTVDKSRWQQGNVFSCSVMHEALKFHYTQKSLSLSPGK

T3: Flag-FGFR2-IIIb expressed on CHO cells (human, UniProt P21802 22-821)
T3 construct: whole, on cells; also called CHO-FGFR2-IIIb; FGFR2-IIIb-expressing CHO cells; not shown: Flag-tag at the N-terminus
T3 chain: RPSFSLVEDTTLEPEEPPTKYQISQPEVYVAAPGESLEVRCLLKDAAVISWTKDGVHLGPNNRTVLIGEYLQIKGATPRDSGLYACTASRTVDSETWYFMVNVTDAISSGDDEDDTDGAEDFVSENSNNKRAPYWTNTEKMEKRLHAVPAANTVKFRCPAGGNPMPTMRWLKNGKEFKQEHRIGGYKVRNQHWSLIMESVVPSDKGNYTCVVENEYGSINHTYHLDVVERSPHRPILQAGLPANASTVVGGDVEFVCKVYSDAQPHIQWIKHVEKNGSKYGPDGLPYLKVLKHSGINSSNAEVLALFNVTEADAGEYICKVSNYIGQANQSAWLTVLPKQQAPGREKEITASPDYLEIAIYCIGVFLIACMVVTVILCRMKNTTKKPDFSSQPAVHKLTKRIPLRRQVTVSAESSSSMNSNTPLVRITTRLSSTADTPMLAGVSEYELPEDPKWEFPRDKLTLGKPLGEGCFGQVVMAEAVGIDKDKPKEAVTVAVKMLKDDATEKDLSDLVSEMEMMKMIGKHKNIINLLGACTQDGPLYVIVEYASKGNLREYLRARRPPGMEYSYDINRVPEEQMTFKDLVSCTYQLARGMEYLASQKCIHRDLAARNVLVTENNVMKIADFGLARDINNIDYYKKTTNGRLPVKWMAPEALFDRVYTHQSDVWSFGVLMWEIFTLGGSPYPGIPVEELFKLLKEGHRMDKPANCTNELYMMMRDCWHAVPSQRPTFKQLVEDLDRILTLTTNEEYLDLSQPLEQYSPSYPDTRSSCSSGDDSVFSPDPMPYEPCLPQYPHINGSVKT

T4: 128AA-mFc (128-amino acid loop-3 fragment of FGFR2IIIc fused to mouse Fc) (human)
T4 chain: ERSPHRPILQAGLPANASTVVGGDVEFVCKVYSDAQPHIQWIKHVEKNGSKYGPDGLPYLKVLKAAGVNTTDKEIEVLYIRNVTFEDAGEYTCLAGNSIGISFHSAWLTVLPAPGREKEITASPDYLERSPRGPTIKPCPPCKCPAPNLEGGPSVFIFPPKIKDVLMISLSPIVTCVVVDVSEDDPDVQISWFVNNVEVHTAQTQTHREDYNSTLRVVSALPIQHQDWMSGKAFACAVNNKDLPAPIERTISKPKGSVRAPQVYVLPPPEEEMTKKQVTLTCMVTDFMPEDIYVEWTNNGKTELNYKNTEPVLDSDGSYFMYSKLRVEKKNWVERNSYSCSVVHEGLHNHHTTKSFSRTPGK

B1: soluble FGFR2 IIIc-Fc fusion protein (Fc fusion)
chain: RPSFSLVEDTTLEPEGAPYWTNTEKMEKRLHAVPAANTVKFRCPAGGNPMPTMRWLKNGKEFKQEHRIGGYKVRNQHWSLIMESVVPSDKGNYTCVVENEYGSINHTYHLDVVERSPHRPILQAGLPANASTVVGGDVEFVCKVYSDAQPHIQWIKHVEKNGSKYGPDGLPYLKVLKAAGVNTTDKEIEVLYIRNVTFEDAGEYTCLAGNSIGISFHSAWLTVLPAPGREKEITASPDYLERSDKTHTCPPCPAPELLGGPSVFLFPPKPKDTLYITREPEVTCVVVDVSHEDPEVKFNWYVDGVEVHNAKTKPREEQYNSTYRVVSVLTVLHQDWLNGKEYKCKVSNKALPAPIEKTISKAKGQPREPQVYTLPPSREEMTKNQVSLTCLVKGFYPSDIAVEWESNGQPENNYKTTPPVLDSDGSFFLYSKLTVDKSRWQQGNVFSCSVMHEALKFHYTQKSLSLSPGK
notes: Extracellular domain of human FGFR2 beta (IIIc), aa 1-262, Arg-Ser linker, human IgG1 Fc; signal peptide 1-21 left out; also called FGFR2 beta-ECD; FGFR2c beta-EDC

How the values were obtained:
FGF8b = biological target: T1, FGF8b; assay: ELISA: receptor Fc fusion (4 ug/ml) on coated FGF8b, anti-human IgG Fc-HRP
[1] = biological target: T5, dcFv-01 (Fc-fusion of human scFv Clone 1) (human); assay: competition ELISA: antibody pre-incubated with FGFR2IIIc-Fc, then added to ligand-coated plate (legend paragraph 175: FGF8; paragraph 640: FGF2); bound receptor detected
T5 construct: scFv-1 fragment fused to the N-terminus of human IgG1 Fc; bivalent; also called dcFv-1; clone dcFv-1; not shown: human IgG1 Fc of vector pFUSE-hIgG1e2-Fc2(IL2ss) (Invivogen)

human ovalbumin (OA) [2] = biological target: human ovalbumin (OA) (human); assay: ELISA: soluble scFv on coated protein (2 ug/ml)
[3] = biological target: B1; assay: ELISA: soluble scFv on coated protein (2 ug/ml)
FGFR2 IIIb-Fc [4] = biological target: T2, FGFR2 IIIb-Fc; assay: ELISA: soluble scFv on coated protein (2 ug/ml)
[5] = biological target: B1; assay: competition ELISA: antibody pre-incubated with FGFR2IIIc-Fc, then added to ligand-coated plate (legend paragraph 175: FGF8; paragraph 640: FGF2); bound receptor detected
[6] = biological target: T3, Flag-FGFR2-IIIb expressed on CHO cells; assay: immunocytochemical staining of CHO cells transiently expressing FGFR2IIIb
FGFR2 IIIb-Fc [7] = biological target: T2, FGFR2 IIIb-Fc; assay: ELISA with soluble scFv, plate coated with FGFR2 IIIb Fc fusion (whole extracellular domain)
human ovalbumin (OA) [8] = biological target: human ovalbumin (OA) (human); assay: phage ELISA on coated protein
[9] = biological target: T4, 128AA-mFc (128-amino acid loop-3 …); assay: phage ELISA on coated protein
human ferritin (Fer) [10] = biological target: T6, human ferritin (Fer) (human, UniProt P02794 2-183; P02792 2-175, Natural ferritin is a 24-subunit shell of H and L chains in a tissue-dependent ratio, with an iron core. The letters carry one copy of each subunit.); assay: phage ELISA on coated protein
T6 construct: also called Feritin

human ferritin (Fer) [11] = biological target: T6, human ferritin (Fer); assay: phage ELISA on coated protein; remark: listed apart in the source

| Binder | OD (450 nm) (human ovalbumin (OA) [2]) | OD (450 nm) [3] | OD (450 nm) (FGFR2 IIIb-Fc [4]) | binding result [6] | other results |
| --- | --- | --- | --- | --- | --- |
| B1 |  |  |  |  | binding result (FGF8b): binds; binding result [1]: binds |
| human scFv clone 6, soluble (scFv, Tags are not described; also called scFv-6; Atto-HuMab-06) scFv: QSVLTQPPSVSAAPGQKVTISCSGSSSNIGNNYVSWYQQLPGTAPKLLIYDNNKRPSGIPDRFSDSKSGTSATLGITGLQTGDEADYYCGTWDSSLSAVVFGGGTKLTVLGSGGSTITSYNVYYTKLSSSGTEVQLVQSGAEVKKPGSSVKVSCKASGGTFSSYAISWVRQAPGQGLEWMGRIIPILGIANYAQKFQGRVTITADKSTSTAYMELSSLRSEDTAVYYCARDPLLWSYFDYWGQGTLVTVSS | 0.015 | 0.571 | 0.012 |  |  |
| dcFv-8 (Fc-fusion of human scFv Clone 8) (Fc fusion, Bivalent fusion construct to human IgG Fc; also called clone dcFv-8; not shown: human IgG1 Fc of vector pFUSE-hIgG1e2-Fc2(IL2ss) (Invivogen)) QSVLTQPPSVSAAPGQKVTISCSGSSSNIGNNYVSWYQQLPGTAPKLLIYDNNKRPSGIPDRFSGSKSGTSATLAISGLQSEDEADYYCAAWDDSLNGVVFGGGTKLTVLGSGGSTITSYNVYYTKLSSSGTQVQLVQSGAEVKKPGSSVKVSCKASGGTFSSYAISWVRQAPGQGLEWMGRIIPIFGTANYAQKFQGRVTITADESTSTAYMELNSLRSEDTAVYYCARDRWDWNDAFDIWGQGTMVTVSS |  |  |  | no binding | IC50 (read off the curve) [5]: ~0.3 nM |
| human scFv clone 8, soluble (scFv, Tags are not described; also called scFv-8; Atto-HuMab-08) scFv: QSVLTQPPSVSAAPGQKVTISCSGSSSNIGNNYVSWYQQLPGTAPKLLIYDNNKRPSGIPDRFSGSKSGTSATLAISGLQSEDEADYYCAAWDDSLNGVVFGGGTKLTVLGSGGSTITSYNVYYTKLSSSGTQVQLVQSGAEVKKPGSSVKVSCKASGGTFSSYAISWVRQAPGQGLEWMGRIIPIFGTANYAQKFQGRVTITADESTSTAYMELNSLRSEDTAVYYCARDRWDWNDAFDIWGQGTMVTVSS | 0.028 | 0.8 | 0.003 | no binding | binding result (FGFR2 IIIb-Fc [7]): no binding |
| human scFv clone 6, phage-displayed (scFv, also called scFv-6; Atto-HuMab-06) scFv: QSVLTQPPSVSAAPGQKVTISCSGSSSNIGNNYVSWYQQLPGTAPKLLIYDNNKRPSGIPDRFSDSKSGTSATLGITGLQTGDEADYYCGTWDSSLSAVVFGGGTKLTVLGSGGSTITSYNVYYTKLSSSGTEVQLVQSGAEVKKPGSSVKVSCKASGGTFSSYAISWVRQAPGQGLEWMGRIIPILGIANYAQKFQGRVTITADKSTSTAYMELSSLRSEDTAVYYCARDPLLWSYFDYWGQGTLVTVSS |  |  |  |  | OD (450 nm) (human ovalbumin (OA) [8]): 0.018; OD (450 nm) [9]: 0.106; OD (450 nm) (human ferritin (Fer) [10]): 0.006; binding result (human ferritin (Fer) [11]): no binding |
